Results from the supplement of paper PMC10567573.

B1: ZNF277 (parent)
chain: ILREELQKQRLREILEQQQQERND
B2: VPS39 (parent)
chain: ITEEKVCMVCKKKIGNSAFARYPN
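Note: lentivirally expressed fusions sorted by FACS into six bins by GFP to DsRed ratio, PSI derived from sequencing read proportions per bin multiplied by bin number.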

Variants of: B1
Assay: protein stability index of a GFP-peptide fusion (GPS, HEK-293T) (PSI 1-6); higher = more stable
Settings: c terminus: a fixed tail appended
ILREALQKQRLREILEQQQQERND [E5A] showed a protein stability index of 2.71. Work on ILRECLQKQRLREILEQQQQERND [E5C] yielded a protein stability index of 3.76. Variant ILREDLQKQRLREILEQQQQERND [E5D] has a protein stability index of 4.76. In the case of ILREFLQKQRLREILEQQQQERND [E5F], the protein stability index is reported as 2.35. IEREELQKQRLREILEQQQQERND [L2E] gave a protein stability index of 5.51. IKREELQKQRLREILEQQQQERND [L2K] showed a protein stability index of 5.45. IVREELQKQRLREILEQQQQERND [L2V] showed a protein stability index of 4.73. With IYREELQKQRLREILEQQQQERND [L2Y] the protein stability index was 4.81. Work on IHREELQKQRLREILEQQQQERND [L2H] yielded a protein stability index of 5.24. Work on IAREELQKQRLREILEQQQQERND [L2A] yielded a protein stability index of 5.13. ITREELQKQRLREILEQQQQERND [L2T] showed a protein stability index of 5.04. IMREELQKQRLREILEQQQQERND [L2M] showed a protein stability index of 4.21. Variant IQREELQKQRLREILEQQQQERND [L2Q] has a protein stability index of 5.61. In the case of INREELQKQRLREILEQQQQERND [L2N], the protein stability index is reported as 5.57. In the case of IIREELQKQRLREILEQQQQERND [L2I], the protein stability index is reported as 4.41. With IWREELQKQRLREILEQQQQERND [L2W] the protein stability index was 3.79. Work on ISREELQKQRLREILEQQQQERND [L2S] yielded a protein stability index of 5.33. IDREELQKQRLREILEQQQQERND [L2D] showed a protein stability index of 5.63. Variant IRREELQKQRLREILEQQQQERND [L2R] has a protein stability index of 5.03. IPREELQKQRLREILEQQQQERND [L2P] gave a protein stability index of 4.86. With IGREELQKQRLREILEQQQQERND [L2G] the protein stability index was 5.11. ICREELQKQRLREILEQQQQERND [L2C] gave a protein stability index of 3.94. With IFREELQKQRLREILEQQQQERND [L2F] the protein stability index was 4.55. In the case of ILAEELQKQRLREILEQQQQERND [R3A], the protein stability index is reported as 4.3. With ILYEELQKQRLREILEQQQQERND [R3Y] the protein stability index was 3.64. Work on ILNEELQKQRLREILEQQQQERND [R3N] yielded a protein stability index of 4.37. Work on ILKEELQKQRLREILEQQQQERND [R3K] yielded a protein stability index of 4.64. For ILEEELQKQRLREILEQQQQERND [R3E], the protein stability index was 5.21. ILIEELQKQRLREILEQQQQERND [R3I] gave a protein stability index of 2.91. In the case of ILSEELQKQRLREILEQQQQERND [R3S], the protein stability index is reported as 4.96. With ILFEELQKQRLREILEQQQQERND [R3F] the protein stability index was 3.4. With ILLEELQKQRLREILEQQQQERND [R3L] the protein stability index was 2.82. ILVEELQKQRLREILEQQQQERND [R3V] gave a protein stability index of 4.01. Work on ILGEELQKQRLREILEQQQQERND [R3G] yielded a protein stability index of 5.05. For ILQEELQKQRLREILEQQQQERND [R3Q], the protein stability index was 4.69. For ILHEELQKQRLREILEQQQQERND [R3H], the protein stability index was 4.46. Work on ILWEELQKQRLREILEQQQQERND [R3W] yielded a protein stability index of 2.56. Work on ILPEELQKQRLREILEQQQQERND [R3P] yielded a protein stability index of 5.31. With ILTEELQKQRLREILEQQQQERND [R3T] the protein stability index was 4.36. Work on ILDEELQKQRLREILEQQQQERND [R3D] yielded a protein stability index of 5.06. Work on ILMEELQKQRLREILEQQQQERND [R3M] yielded a protein stability index of 3.68. ILRPELQKQRLREILEQQQQERND [E4P] gave a protein stability index of 4.95. Work on ILRDELQKQRLREILEQQQQERND [E4D] yielded a protein stability index of 4.06. Work on ILRFELQKQRLREILEQQQQERND [E4F] yielded a protein stability index of 2.99. Variant ILRLELQKQRLREILEQQQQERND [E4L] has a protein stability index of 3.05. For ILRHELQKQRLREILEQQQQERND [E4H], the protein stability index was 3.95. With ILRQELQKQRLREILEQQQQERND [E4Q] the protein stability index was 3.99. Variant ILRVELQKQRLREILEQQQQERND [E4V] has a protein stability index of 3.88. With ILRIELQKQRLREILEQQQQERND [E4I] the protein stability index was 3.79. With ILRTELQKQRLREILEQQQQERND [E4T] the protein stability index was 4.42. With ILRKELQKQRLREILEQQQQERND [E4K] the protein stability index was 3.22. ILRRELQKQRLREILEQQQQERND [E4R] gave a protein stability index of 3.61. With ILRGELQKQRLREILEQQQQERND [E4G] the protein stability index was 4.89. Work on ILRSELQKQRLREILEQQQQERND [E4S] yielded a protein stability index of 4.18. ILRMELQKQRLREILEQQQQERND [E4M] showed a protein stability index of 3.75. ILRYELQKQRLREILEQQQQERND [E4Y] gave a protein stability index of 3.38. For ILRNELQKQRLREILEQQQQERND [E4N], the protein stability index was 4.16. Variant ILRAELQKQRLREILEQQQQERND [E4A] has a protein stability index of 3.85. With ILRWELQKQRLREILEQQQQERND [E4W] the protein stability index was 3.28. For HLREELQKQRLREILEQQQQERND [I1H], the protein stability index was 4.89. With ALREELQKQRLREILEQQQQERND [I1A] the protein stability index was 4.59. For WLREELQKQRLREILEQQQQERND [I1W], the protein stability index was 4.19. VLREELQKQRLREILEQQQQERND [I1V] gave a protein stability index of 4.4. Variant PLREELQKQRLREILEQQQQERND [I1P] has a protein stability index of 4.73. Work on KLREELQKQRLREILEQQQQERND [I1K] yielded a protein stability index of 4.24. For LLREELQKQRLREILEQQQQERND [I1L], the protein stability index was 4.09. CLREELQKQRLREILEQQQQERND [I1C] showed a protein stability index of 4.79. TLREELQKQRLREILEQQQQERND [I1T] gave a protein stability index of 5.08. ELREELQKQRLREILEQQQQERND [I1E] showed a protein stability index of 4.93. MLREELQKQRLREILEQQQQERND [I1M] showed a protein stability index of 4.66. GLREELQKQRLREILEQQQQERND [I1G] gave a protein stability index of 4.93. NLREELQKQRLREILEQQQQERND [I1N] showed a protein stability index of 4.99. Variant SLREELQKQRLREILEQQQQERND [I1S] has a protein stability index of 5.12. For YLREELQKQRLREILEQQQQERND [I1Y], the protein stability index was 4.75. FLREELQKQRLREILEQQQQERND [I1F] gave a protein stability index of 4.43.

Variants of: B2
Assay: as above
Settings: c terminus: a fixed tail appended
With ITEEKVCMVCKKKIGNSAFARYPG [N24G] the protein stability index was 1.77. Variant ITEEKVCMVCKKKIGNSAFARYPI [N24I] has a protein stability index of 1.86. For ITEEKVCMVCKKKIGNSAFARYPA [N24A], the protein stability index was 2.11. Variant ITEEKVCMVCKKKIGNSAFARYPF [N24F] has a protein stability index of 1.85. ITEEKVCMVCKKKIGNSAFARYPP [N24P] showed a protein stability index of 2.37. For ITEEKVCMVCKKKIGNSAFARYPK [N24K], the protein stability index was 2.24. With ITEEKVCMVCKKKIGNSAFARYPT [N24T] the protein stability index was 2.88. Variant ITEEKVCMVCKKKIGNSAFARYPE [N24E] has a protein stability index of 2.05. In the case of ITEEKVCMVCKKKIGNSAFARYPD [N24D], the protein stability index is reported as 2.6. For ITEEKVCMVCKKKIGNSAFARYPY [N24Y], the protein stability index was 2.39. Work on ITEEKVCMVCKKKIGNSAFARYPQ [N24Q] yielded a protein stability index of 2.52. Variant ITEEKVCMVCKKKIGNSAFARYPH [N24H] has a protein stability index of 2.36. ITEEKVCMVCKKKIGNSAFARYPM [N24M] gave a protein stability index of 2.06. ITEEKVCMVCKKKIGNSAFARYPS [N24S] gave a protein stability index of 2.18. With ITEEKVCMVCKKKIGNSAFARYPL [N24L] the protein stability index was 2.27. Variant ITEEKVCMVCKKKIGNSAFARYPC [N24C] has a protein stability index of 2.34. Work on ITEEKVCMVCKKKIGNSAFARYPW [N24W] yielded a protein stability index of 1.93. With ITEEKVCMVCKKKIGNSAFARYPV [N24V] the protein stability index was 1.65. Variant ITEEKVCMVCKKKIGNSACARYPN [F19C] has a protein stability index of 3.52.
